Data taken from a protein production outcome set (Wang et al. 2014).

Assay: label from the status in PepcDB records

Row | Sequence | protein production
1 | YAVQICKGMDYLGSRQYVHRDLAARNVLVESEHQVKIGDFGLTKAIETDKEYYTVKDDRDSPVFWYAPECLMQSKFYIASDVWSFGVTLHELLTYCDSDSSPMALFLKMIGPTHGQMTVTRLVNTLKEGKRLPCPPNCPDEVYQLMRKCWEFQPSNRTSFQNLIEGFEALLK | failed
2 | YDAILLIDYRQRRIIDCNQTAQKLLGYSKEELRLLPPYRLLRAMSARSIKPIFQDILAKRREIHDITLLSQSGEQLLGQLSFNTLQEED | failed
3 | YKELDVHLRRMESGFGFRILGGDEPGQPILIGAVIAMGSADRDGRLHPGDELVYVDGIPVAGKTHRYVIDLMHHAARNGQVNLTVRRKVL | not failed
4 | YLIKFDRIAVPMAEGRSSRRVLHIAFAFASAMGSEITAITVRDQAKDITWTNKITVVTNAYKEGLSQNIKVVPKILTSSDVKSALVEELNRHSYDIVIIASEKRSIITRITSGPVSNYVIKKSNIPTALV | failed
5 | YSIALIIPSLFEKACAHFLPSFQQALNKAGYQLLLGYSDYSIEQEEKLLSTFLESRPAGVVLFGSEHSQRTHQLLEASNTPVLEIAELSSKASYLNIGVDHFEVGKACTRHLIEQGFKNVGFIGARGNHSTLQRQLHGWQSAMIENYLTPDHFLTTHEAPSSQLGAEGLAKLLLRDSSLNALVCSHEEIAIGALFECHRRVLKVPTDIAIICLEGSSMGEHAYPSLTSAEFDYERMGTKAAEKLLHAIKGEPEERPTSMGFKLKRRASTAIN | not failed
6 | YYNIYYPRGKDFYNVGGDYKFFWKRFSLLGETAIDKCGTWATMNMLRYSPKGGTQLIVMNRYYDAKYQSVYARSIGEGSTVQNESGFYIGLETSILKYIKMTCYGDFFYFPWKKYLVSKAGTKGLDGLLQLSYSPTYELEMFIRYRYKKKEKDFTAADKTKQTIPSIQQKCRYQLNYSVKDKLTLKTIADYVRINFRGQSASNGFLVSQSAAYTFHLLPLQLDLSAAWFNTDDYNSRLTIYEKSVLYAFSMPSFYYKGMRVAVNARYELNKHIILQAKYGTTHYFNRDKISSALEEIDGSTKSDLYLQLRLKF | failed
